This note sets out measurements from PMC7327177.

The stoichiometry N is the number of molecules, sites or subunits per partner or assembly.

Test [1] addresses Heme A synthase from Aquifex aeolicus (Aquifex aeolicus strain VF5) (UniProt O66543). Put plainly: cross-linking; 0.5/3.5 mM BS3 or 0.5 mM DSS, room temperature, 30 min, quenched with 50 mM Tris-HCl pH 7.5, then 90°C for 10 min and SDS-PAGE.
The target is the same in test [2]. As to the kind of experiment: SEC-MALS; 150 μl AaHAS at ~2 mg/ml, Superdex 200 10/300 GL, 20 mM Tris-HCl pH 7.4, 150 mM NaCl, 0.15% DM, 4°C. Background: SEC sorts molecules by how far they enter the pores of the column.
For test [3] the target is unchanged. As to the kind of experiment: native MS; LILBID-MS, additionally desalted AaHAS (without NaCl; 20 mM Tris-HCl pH 7.4, 0.15% DM), harsh laser mode, negative-ion mode.
For test [4] the target is unchanged. Put plainly: SDS-PAGE + MALDI-TOF MS; purified AaHAS on 4 to 12% bis-Tris NuPAGE; incubated with 10 mM DTT at room temperature or 70°C for 10 min; masses of the two bands by MALDI-TOF MS (data not shown).
Test [5] shares this target. As to the kind of experiment: cryo-EM structure; single-particle cryo-EM of purified AaHAS (2.5 mg/ml) in DM; map at 4.2 Å with C3 symmetry, 4.6 Å without applied symmetry.
Test [6] shares this target. Put plainly: native MS; LILBID-MS, AaHAS 2 mg/ml, in the presence of 150 mM NaCl, harsh laser mode, negative-ion mode.
The target is the same in test [7]. As to the kind of experiment: native gel or EMSA; BN-PAGE, Novex 4 to 16% bis-Tris gel, purified AaHAS in DM; band at about 200 kDa, conversion factor 1.8 gives 110 kDa. A general note: Mobility shift assays separate free from complexed probe on a gel.

Several values for one entry are separate records, joined by “and”; a condition that tells them apart may be missing. Identical values can stand only once.

For “Heme A synthase from Aquifex aeolicus (from UniProt O66543 2-296) (enzyme)”, the stoichiometry N in test [1] was 2 and 3; in test [2], 3; in test [3], 2 and 3; in test [4], 3; in test [5], 3; in test [6] it was 3. In test [7], this substance yielded a stoichiometry N of 3.
